Target: T1, GAL4 DNA binding domain fused to the five SH3 domains of Ese1 (amino acids 665-1213) (mouse, UniProt P04386 1-147 (Saccharomyces cerevisiae entry))
T1 construct: Yeast two-hybrid bait; also called pGBT9Ese1A3.3; SH3 domain bait of Ese1
Assay: yeast two-hybrid screen with amino acids 665-1213 of Ese1 as bait

binding result: binds
B1: Mouse YNK1 partial protein, GAL4 activation domain library clone (other, not shown: large carriers)
chain: LRAEGAKFRAVLDKAVQADGQVKERYQSHRDTIALLCKPEPELNAAIPSANPAKTMQGSEVVSVLKSLLSNLDEIKKERESLENDLKSVNFDMTSKFLTALAQDGVINEEALSVTELDRIYGGLTSKVQESLKKQEGLLKNIQVSHQEFSKMKQSNNEANLREEVLKNLATAYDNFVELVANLKEGTKFYNELTEILVRFQNKCSDIVFARKTERDELLKDLQQSIAREPSAPSIPPPAYQSSPAAGHAAAPPTPAPRTMPPAKPQPPARPPPPVLPANRVPPASAAAAPAGVGTASAAPPQTPGSAPPPQAQGPPYPTYPGYPGYCQMPMPMGYNPYAYGQYNMPYPPVYHQSPGQAPYPGPQQPTYPFPQPPQQSYYPQQ

— patent publication US7118886 (HSC RESEARCH AND DEVELOPMENT LIMITED PARTNERSHIP, dated 2006)
